This experiment deals with T1, human soluble CTLA-4 (sCTLA-4), natural soluble form (human, UniProt P16410-5 36-174, limits assumed).
T1 construct: also called natural soluble CTLA-4; soluble form of cytotoxic T-lymphocyte antigen 4
T1 sequence (looked up): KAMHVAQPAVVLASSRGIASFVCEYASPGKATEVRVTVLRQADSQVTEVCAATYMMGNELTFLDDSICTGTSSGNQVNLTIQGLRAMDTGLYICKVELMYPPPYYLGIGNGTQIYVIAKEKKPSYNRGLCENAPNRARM
The experiment can be described thus: sandwich ELISA, capture with pan-specific mAb BNI3, detection with biotinylated JMW-3B3. An excerpt:
FIG. 7. Anti-sCTLA-4 JMW-3B3 distinguishes, in sera and culture supernatant, true natural soluble CTLA-4 from extracellular membrane-bound CTLA-4 (mCTLA-4). The extracellular portion of mCTLA-4 is encoded by exon 2 and is identical in sCTLA-4, mCTLA-4 and the recombinant soluble form of CTLA-4, CTLA4-Ig. […] Pan-specific anti-CTLA-4 mAb (clone BNI3) was used as the capture antibody.

B1: monoclonal anti-sCTLA-4 antibody JMW-3B3 (antibody, mouse IgG1, V domains shown)
VH: EVKLVNSGGGLVQPGNSLRLSCATSGFTFTDFYMSWVRQPPGKALEWLGFVRNRANGYTTEYSVSVKGRFIISRDNFQSTLFLQMNTLRAEDSGTYYCVRGPGDTADYTMDYWGQGTSVTVSS
VL: QAVVTQESAFTTSPGGTVILTCRSSTGAVTTNNYANWVQEKPDHLFTGLIGGTSNRAPGVPVRFSGSLIGDKAALTITGAQTEDDGMYFCALWYTTHFVFGGGTKVT
notes: It was biotinylated for detection in the sandwich ELISAs; also called mAb JMW-3B3; anti-sCTLA-4 mAb
As for B1, the binding result is reported as “binds”.

The record behind these values is patent US20120107320A1 (UNIVERSITY COURT OF THE UNIVERSITY OF ABERDEEN, published 2012).
